In paper PMC3285612, “Simukunin from the Salivary Glands of the Black Fly Simulium vittatum Inhibits Enzymes That Regulate Clotting and Inflammatory Responses” (PLoS ONE, 2012):

Experiments:
[1] = molecular target: T1, elastase (purified from human sputum) (human, UniProt P08246 30-267); assay: SPR; kinetics: rSimukunin immobilised on a CM5 chip by amine coupling (475.3 RU); FXa 3.1-50 nM or elastase 0.45-3.75 nM injected for 180 s at 30 µl/minute, 25°C; HBS-P (10 mM Hepes pH 7.4, 150 mM NaCl, 0.005% P20); global fit to a 1:1 Langmuir model; details: both partners purified
T1 construct: elastase, human, purified from sputum; the discussion speaks of it as a component of neutrophil azurophil granules (neutrophil elastase); source: bought: Molecular Innovations, purified from human sputum (SPR); bought: Elastin Products (enzyme assays)
T1 sequence (looked up): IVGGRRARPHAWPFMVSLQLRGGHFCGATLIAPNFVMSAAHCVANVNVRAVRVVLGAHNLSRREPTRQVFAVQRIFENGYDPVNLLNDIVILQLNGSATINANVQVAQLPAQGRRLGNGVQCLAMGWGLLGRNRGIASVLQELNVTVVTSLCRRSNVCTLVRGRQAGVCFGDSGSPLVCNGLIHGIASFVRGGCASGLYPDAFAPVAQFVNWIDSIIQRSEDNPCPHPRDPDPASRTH

[2] = molecular target: T1, elastase (purified from human sputum); assay: cell-based or functional assay
[3] = molecular target: skin β-tryptase (human, UniProt Q15661 19-275); assay: cell-based or functional assay
skin β-tryptase, sequence (Q15661 19-275): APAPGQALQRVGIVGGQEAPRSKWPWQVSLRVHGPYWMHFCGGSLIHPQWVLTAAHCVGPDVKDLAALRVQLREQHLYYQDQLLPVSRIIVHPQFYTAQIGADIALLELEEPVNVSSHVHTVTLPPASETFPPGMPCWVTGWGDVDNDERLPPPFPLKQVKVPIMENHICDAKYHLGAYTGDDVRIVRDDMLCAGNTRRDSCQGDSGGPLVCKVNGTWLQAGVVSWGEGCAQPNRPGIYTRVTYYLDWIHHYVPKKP

[4] = molecular target: plasmin (human); assay: cell-based or functional assay
plasmin (human), sequence (P00747 20-580, chain 1 of 2): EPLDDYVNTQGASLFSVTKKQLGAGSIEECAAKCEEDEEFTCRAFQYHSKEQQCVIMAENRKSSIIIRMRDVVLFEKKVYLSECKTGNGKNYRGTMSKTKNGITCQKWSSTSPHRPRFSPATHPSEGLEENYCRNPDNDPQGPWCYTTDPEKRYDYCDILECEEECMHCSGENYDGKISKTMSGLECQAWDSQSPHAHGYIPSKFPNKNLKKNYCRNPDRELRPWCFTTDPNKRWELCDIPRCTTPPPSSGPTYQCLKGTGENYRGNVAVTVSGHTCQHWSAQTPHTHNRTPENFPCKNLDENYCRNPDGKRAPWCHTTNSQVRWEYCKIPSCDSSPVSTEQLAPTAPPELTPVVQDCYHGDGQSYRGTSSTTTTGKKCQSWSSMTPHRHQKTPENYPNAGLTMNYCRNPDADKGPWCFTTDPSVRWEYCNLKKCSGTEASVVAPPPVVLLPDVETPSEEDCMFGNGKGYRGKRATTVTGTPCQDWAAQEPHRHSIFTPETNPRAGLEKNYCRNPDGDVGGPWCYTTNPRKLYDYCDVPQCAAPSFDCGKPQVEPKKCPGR
plasmin (human), sequence (P00747 581-810, chain 2 of 2): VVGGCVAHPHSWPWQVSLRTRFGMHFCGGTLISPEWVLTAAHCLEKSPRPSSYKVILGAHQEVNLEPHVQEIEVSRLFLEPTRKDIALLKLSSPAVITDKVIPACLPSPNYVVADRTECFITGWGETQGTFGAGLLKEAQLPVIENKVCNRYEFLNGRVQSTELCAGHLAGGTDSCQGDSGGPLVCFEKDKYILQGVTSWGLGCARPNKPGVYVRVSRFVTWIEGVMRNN

[5] = molecular target: activated coagulation factor XI (FXIa) (human); assay: cell-based or functional assay
activated coagulation factor XI (FXIa) (human), sequence (chain, as listed by the source, chain 1 of 2): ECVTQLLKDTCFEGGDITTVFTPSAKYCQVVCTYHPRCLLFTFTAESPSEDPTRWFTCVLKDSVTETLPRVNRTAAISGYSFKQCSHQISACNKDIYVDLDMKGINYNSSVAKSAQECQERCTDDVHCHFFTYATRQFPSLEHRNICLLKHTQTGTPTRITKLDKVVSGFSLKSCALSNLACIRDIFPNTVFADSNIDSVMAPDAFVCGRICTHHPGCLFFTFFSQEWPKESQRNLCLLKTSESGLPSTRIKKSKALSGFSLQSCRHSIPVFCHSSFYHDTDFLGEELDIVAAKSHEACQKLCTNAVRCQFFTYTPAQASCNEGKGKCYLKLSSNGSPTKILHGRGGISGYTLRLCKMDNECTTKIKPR
activated coagulation factor XI (FXIa) (human), sequence (chain, as listed by the source, chain 2 of 2): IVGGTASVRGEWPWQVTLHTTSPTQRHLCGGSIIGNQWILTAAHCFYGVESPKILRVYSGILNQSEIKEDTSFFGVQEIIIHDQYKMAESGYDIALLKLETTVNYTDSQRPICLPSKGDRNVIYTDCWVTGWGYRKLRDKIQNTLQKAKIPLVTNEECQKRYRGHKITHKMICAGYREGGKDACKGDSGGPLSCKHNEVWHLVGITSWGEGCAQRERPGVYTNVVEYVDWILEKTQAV

[6] = molecular target: T2, cathepsin G (human, UniProt P08311 21-244); assay: cell-based or functional assay
T2 sequence (looked up): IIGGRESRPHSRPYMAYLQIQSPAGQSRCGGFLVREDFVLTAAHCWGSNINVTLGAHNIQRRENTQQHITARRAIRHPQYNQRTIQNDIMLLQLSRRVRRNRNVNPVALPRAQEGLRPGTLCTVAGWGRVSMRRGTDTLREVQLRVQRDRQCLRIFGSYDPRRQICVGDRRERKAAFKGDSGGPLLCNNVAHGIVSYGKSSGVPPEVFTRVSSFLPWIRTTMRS

[7] = molecular target: trypsin (sequencing grade) (human, UniProt P07477 16-247); assay: cell-based or functional assay
trypsin (sequencing grade), sequence (P07477 16-247): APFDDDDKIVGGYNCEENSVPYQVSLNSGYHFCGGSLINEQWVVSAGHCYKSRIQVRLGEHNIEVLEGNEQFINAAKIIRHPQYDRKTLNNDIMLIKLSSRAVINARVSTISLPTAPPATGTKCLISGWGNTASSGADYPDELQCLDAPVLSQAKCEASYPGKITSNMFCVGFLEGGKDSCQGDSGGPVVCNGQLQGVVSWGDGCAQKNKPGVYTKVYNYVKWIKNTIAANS

[8] = molecular target: kallikrein (human, UniProt P03952 20-638); assay: cell-based or functional assay
kallikrein, sequence (P03952 20-638): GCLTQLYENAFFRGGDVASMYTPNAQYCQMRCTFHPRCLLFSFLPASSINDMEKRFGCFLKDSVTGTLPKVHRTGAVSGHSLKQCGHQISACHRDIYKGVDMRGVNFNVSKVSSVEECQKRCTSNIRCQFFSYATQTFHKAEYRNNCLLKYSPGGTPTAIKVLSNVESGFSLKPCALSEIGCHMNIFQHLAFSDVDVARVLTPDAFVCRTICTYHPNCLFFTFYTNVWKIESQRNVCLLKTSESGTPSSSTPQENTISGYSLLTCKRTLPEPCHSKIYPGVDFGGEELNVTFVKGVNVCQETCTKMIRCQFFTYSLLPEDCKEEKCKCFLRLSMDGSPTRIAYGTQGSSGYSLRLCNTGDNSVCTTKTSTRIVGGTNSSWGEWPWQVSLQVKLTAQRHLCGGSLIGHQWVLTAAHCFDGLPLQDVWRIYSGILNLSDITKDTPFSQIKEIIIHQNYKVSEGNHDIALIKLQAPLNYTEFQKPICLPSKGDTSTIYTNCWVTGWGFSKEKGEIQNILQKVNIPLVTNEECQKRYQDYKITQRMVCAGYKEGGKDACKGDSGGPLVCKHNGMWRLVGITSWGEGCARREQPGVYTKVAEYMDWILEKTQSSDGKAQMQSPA

[9] = molecular target: T1, elastase (purified from human sputum); assay: enzyme inhibition assay (Ki from IC50 by Cheng and Prusoff); rSimukunin titrated against a constant concentration of enzyme, pre-incubated 5 min, fluorogenic peptidyl substrate 250 µM, 30°C; Ki calculated from the IC50 and the substrate's Km; estimated; details: both partners purified
[10] = molecular target: T2, cathepsin G; assay: as above; details: both partners purified

B1: recombinant Simukunin (rSV-66) (natural protein, Simulium vittatum, UniProt B5M0W4 20-102, looked up)
chain: QENVCNLPVDEGVCRALFKRFYYEPATDSCKEFYYGGCEGNGNRFKSKKECILKCQKNKQLIKTRKRKPKKTTKPPIPIISLD
notes: SV-66 (Simukunin), Kunitz family salivary protein of the black fly Simulium vittatum; full-length ORF without signal peptide was cloned; numbers count on: the mature protein; pET-30 Ek/LIC vector; The purified protein ran as a doublet; also called rSimukunin; WT rSimukunin; source: E. coli BL21 (DE3), purified (Ni-NTA, RP-HPLC)
Q: Which Kd [1] does the source give for B1 here?
A: 0.4 nM

Q: What about the koff [1] of the same binder?
A: 0.0173 s⁻¹

Q: And the kon [1]?
A: 4.3e+07 M⁻¹ s⁻¹

Q: And the “IC50 of inhibition of enzyme activity (fluorogenic peptidyl substrate, 250 µM); elastase 0.18 nM” value [2]?
A: 4.9 nM

Q: And the “IC50 of inhibition of enzyme activity (fluorogenic peptidyl substrate, 250 µM); β-tryptase 0.01 nM” value [3]?
A: 66.8 nM

Q: What about the “IC50 of inhibition of enzyme activity (fluorogenic peptidyl substrate, 250 µM); plasmin 0.2 nM” value [4] of the same binder?
A: 32.2 nM

Q: And the “IC50 of inhibition of enzyme activity (fluorogenic peptidyl substrate, 250 µM); Factor XIa 0.06 nM” value [5]?
A: 56.7 nM

Q: What about the “IC50 of inhibition of enzyme activity (fluorogenic peptidyl substrate, 250 µM); cathepsin G 6.7 nM” value [6] of the same binder?
A: 217 nM

Q: And the “IC50 of inhibition of enzyme activity (fluorogenic peptidyl substrate, 250 µM); trypsin 0.1 nM” value [7]?
A: 379 nM

Q: And the “IC50 of inhibition of enzyme activity (fluorogenic peptidyl substrate, 250 µM); kallikrein 0.08 nM” value [8]?
A: 91.8 nM

Q: And the Ki [9]?
A: ~0.65 nM

Q: And the Ki [10]?
A: 100 nM
